{
  "source": "paper PMC9992855",
  "about": "“Functional polyamine metabolic enzymes and pathways encoded by the virosphere” (Proceedings of the National Academy of Sciences of the …, 2023)",
  "tested_on": "N=C(N)NCCC[C@H](N)C(=O)O",
  "assay": "purified protein",
  "settings": "27 °C",
  "text": "decarboxylase activity assay on Ca. Fonsibacter ubiquis \"ODC\" (ODC/ADC)",
  "data": [
    {"substance": "Ca. Fonsibacter ubiquis \"ODC\" (ODC/ADC) (unidentified)", "values": [
      {"measurement": "Km", "value": "1300 ± 120", "unit": "µM"},
      {"measurement": "kcat", "value": "2.2 ± 0.13", "unit": "s⁻¹"},
      {"measurement": "kcat/Km", "value": "1700 ± 91", "unit": "M⁻¹ s⁻¹"}
    ]}
  ]
}
